In assay [1] the target is T1, human CD9, full-length, expressed on cells (human, UniProt P21926 2-228).
T1 construct: also called Tetraspanin-29
T1 sequence: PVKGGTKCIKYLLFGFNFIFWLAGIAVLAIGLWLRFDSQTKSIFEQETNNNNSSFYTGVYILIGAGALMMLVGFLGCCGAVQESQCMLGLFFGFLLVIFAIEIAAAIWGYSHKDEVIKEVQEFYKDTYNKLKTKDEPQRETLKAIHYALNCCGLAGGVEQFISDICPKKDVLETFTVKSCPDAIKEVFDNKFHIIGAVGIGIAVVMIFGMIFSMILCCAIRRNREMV
As to the kind of experiment: binding to cells expressing full-length CD9 (selection; method not described).

Assay [2] deals with T2, CD137 peptide P1 (CRD1)-human Fc fusion protein (human, UniProt Q07011 25-68).
T2 construct: Made in Expi293F cells and used as conditioned medium, captured on anti-hIgG Fc biosensors; not shown: human Fc tag at the C-terminus
T2 chain: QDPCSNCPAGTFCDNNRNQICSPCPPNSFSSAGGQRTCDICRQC
As to the kind of experiment: BLI (Octet RED384), CD137 CRD peptide-Fc on AHC biosensors, Fab-Y at 10 µg/mL; CRD inferred from the peptide binding profile. As to the method:
DNA sequences coding for each peptide (as shown in Table 7) were ordered from Twist Bioscience in a mammalian expression vector with a human Fc tag at the C-terminus. Each plasmid was used to transfect Expi293F™ cells (Gibcon™) to generate the different peptide-human Fc fusion proteins. For transfections, 850 μl of Expi293F™ cells ([…]) were plated in 48-well blocks and transfected with 3 μg of DNA using the ExpiFectamine™ 293 Transfection Kit (ThermoFisher) following the manufacturer's instructions. Cells were incubated in a 37° C., 5% CO₂ environment with shaking at 225 rpm. After 6 days, cells were pelleted (1000×g, 10 min) and the conditioned medias containing each of the peptides were harvested, quantitated and diluted to 1.7 μg/mL in Expi293™ Expression Medium (ThermoFisher). The conditioned medias were used for binding assessment to our panel of antibodies using the Octet® RED384 System (FortéBio) at room temperature with anti-hIgG Fc Capture (AHC) Biosensors (FortéBio). Firstly, an array of 8 sensors was dipped in kinetics buffer (PBS, 0.1% BSA, 0.02% Tween 20) for 180 seconds to provide a baseline signal. […]

B1: anti-CD9 Fab-Y 7272 (Fab, V domains shown)
VH: QSLEESGGRLVTPGTPLTLTCTVSGFSLSSYAMGWVRQAPGKGLEWIGAIGSITATGYARWAKGRFSISKTSTTVDLKMTSPTTEDTATYFCAREIYVGSAYAFDIWGPGTLVTVSS
VL: AYDMTQTPASVEVAVGDTVTIKCQASQSISNYLAWYQQKPGQPPKLLIYLASTLASGVPSRFKGSGSGTEFTLTISDLECADAATYYCQQGYIDNVNKGFGGGTEVVVK
notes: Tested as Fab-Y: a Fab whose CH1 is joined by a peptide linker to the GCN4 peptide (clone 7P14P); also called VR7272
Take B1: in assay [1], the binding result is recorded as “binds”.

B2: anti-CD137 Fab-Y 8475 (Fab, V domains shown)
VH: QSVEESGGRLVTPGTPLTLTCTVSGFSLSTYAMSWVRQAPGKGLEWIGAIWSGGTTDYTSWAKGRFTISKASTTVDLKITSPTTEDTATYFCVRMAVIFNAYTFDSWGPGTLVTVSS
VL: AYDMTQTPSSVSAAVGGTVTIKCQASQNIYSYLAWYQQKPGQRPKLLIYGASTLASGVPSRFKGSGSGTDFTLTISDLECDDAATYYCQQGHSSGNVGNNVFGGGTEVVVK
notes: Tested as Fab-Y: a Fab whose CH1 is joined by a peptide linker to the GCN4 peptide (clone 7P14P); also called VR8475
With B2, in assay [2], the binding result was “binds”.

The values are drawn from US20230151108A1 (UCB, published 2023).
